The values that follow come from patent publication US20220306695A1, “COMPSTATIN ANALOGUES AND THEIR MEDICAL USES” (priority 2019, published 2022).

Starred links: 1 amine or outer side, 2 acyl side, 3 side chain; linkers in the order of their positions; H or OH if unused. Positions of bridges follow the written chain, without caps; N, C: chain ends. Non-standard residues stand in square brackets, D forms with d. Groups on a side chain read outwards from the residue. *: point of attachment. Trp(1-Me) = Cn1cc(C[C@H](N)C(=O)O)c2ccccc21; C18 diacid = O=C(O)CCCCCCCCCCCCCCCCC(=O)*; γGlu = O=C(O)[C@H](CCC(=O)[*:2])N[*:1]; Sar = CNCC(=O)O

Sequences and labels used below:
B1: Compound 110 (peptide)
peptide: Ac-EGSAYCI[Trp(1-Me)]QDWGEHRC[Sar]EGKK([γGlu-Gly-γGlu-C18 diacid])-NH2
modifications: disulfide 6-16
SMILES: CC[C@H](C)[C@@H]1NC(=O)[C@@H](NC(=O)[C@H](Cc2ccc(O)cc2)NC(=O)[C@H](C)NC(=O)[C@H](CO)NC(=O)CNC(=O)[C@H](CCC(=O)O)NC(C)=O)CSSC[C@@H](C(=O)N(C)CC(=O)N[C@@H](CCC(=O)O)C(=O)NCC(=O)N[C@@H](CCCCN)C(=O)N[C@@H](CCCCNC(=O)CC[C@H](NC(=O)CNC(=O)CC[C@H](NC(=O)CCCCCCCCCCCCCCCCC(=O)O)C(=O)O)C(=O)O)C(N)=O)NC(=O)[C@H](CCCNC(=N)N)NC(=O)[C@H](Cc2c[nH]cn2)NC(=O)[C@H](CCC(=O)O)NC(=O)CNC(=O)[C@H](Cc2c[nH]c3ccccc23)NC(=O)[C@H](CC(=O)O)NC(=O)[C@H](CCC(N)=O)NC(=O)[C@H](Cc2cn(C)c3ccccc23)NC1=O
B2: Compound 109 (peptide)
peptide: Ac-EGSAYCI[Trp(1-Me)]QDWGEHRC[Sar]EGEK([γGlu-Gly-γGlu-C18 diacid])-NH2
modifications: disulfide 6-16
SMILES: CC[C@H](C)[C@@H]1NC(=O)[C@@H](NC(=O)[C@H](Cc2ccc(O)cc2)NC(=O)[C@H](C)NC(=O)[C@H](CO)NC(=O)CNC(=O)[C@H](CCC(=O)O)NC(C)=O)CSSC[C@@H](C(=O)N(C)CC(=O)N[C@@H](CCC(=O)O)C(=O)NCC(=O)N[C@@H](CCC(=O)O)C(=O)N[C@@H](CCCCNC(=O)CC[C@H](NC(=O)CNC(=O)CC[C@H](NC(=O)CCCCCCCCCCCCCCCCC(=O)O)C(=O)O)C(=O)O)C(N)=O)NC(=O)[C@H](CCCNC(=N)N)NC(=O)[C@H](Cc2c[nH]cn2)NC(=O)[C@H](CCC(=O)O)NC(=O)CNC(=O)[C@H](Cc2c[nH]c3ccccc23)NC(=O)[C@H](CC(=O)O)NC(=O)[C@H](CCC(N)=O)NC(=O)[C@H](Cc2cn(C)c3ccccc23)NC1=O
B3: Compound 114 (peptide)
peptide: Ac-SEYCI[Trp(1-Me)]QDWGEHRC[Sar]EGEK([γGlu-Gly-γGlu-C18 diacid])-NH2
modifications: disulfide 4-14
SMILES: CC[C@H](C)[C@@H]1NC(=O)[C@@H](NC(=O)[C@H](Cc2ccc(O)cc2)NC(=O)[C@H](CCC(=O)O)NC(=O)[C@H](CO)NC(C)=O)CSSC[C@@H](C(=O)N(C)CC(=O)N[C@@H](CCC(=O)O)C(=O)NCC(=O)N[C@@H](CCC(=O)O)C(=O)N[C@@H](CCCCNC(=O)CC[C@H](NC(=O)CNC(=O)CC[C@H](NC(=O)CCCCCCCCCCCCCCCCC(=O)O)C(=O)O)C(=O)O)C(N)=O)NC(=O)[C@H](CCCNC(=N)N)NC(=O)[C@H](Cc2c[nH]cn2)NC(=O)[C@H](CCC(=O)O)NC(=O)CNC(=O)[C@H](Cc2c[nH]c3ccccc23)NC(=O)[C@H](CC(=O)O)NC(=O)[C@H](CCC(N)=O)NC(=O)[C@H](Cc2cn(C)c3ccccc23)NC1=O
B4: Compound 112 (peptide)
peptide: Ac-SEYCI[Trp(1-Me)]QDWGEHRC[Sar]EGAK([γGlu-Gly-γGlu-C18 diacid])-NH2
modifications: disulfide 4-14
SMILES: CC[C@H](C)[C@@H]1NC(=O)[C@@H](NC(=O)[C@H](Cc2ccc(O)cc2)NC(=O)[C@H](CCC(=O)O)NC(=O)[C@H](CO)NC(C)=O)CSSC[C@@H](C(=O)N(C)CC(=O)N[C@@H](CCC(=O)O)C(=O)NCC(=O)N[C@@H](C)C(=O)N[C@@H](CCCCNC(=O)CC[C@H](NC(=O)CNC(=O)CC[C@H](NC(=O)CCCCCCCCCCCCCCCCC(=O)O)C(=O)O)C(=O)O)C(N)=O)NC(=O)[C@H](CCCNC(=N)N)NC(=O)[C@H](Cc2c[nH]cn2)NC(=O)[C@H](CCC(=O)O)NC(=O)CNC(=O)[C@H](Cc2c[nH]c3ccccc23)NC(=O)[C@H](CC(=O)O)NC(=O)[C@H](CCC(N)=O)NC(=O)[C@H](Cc2cn(C)c3ccccc23)NC1=O
B5: Compound 129 (peptide)
peptide: Ac-SEFCI[Trp(1-Me)]QDWGEHRC[Sar]EGEGGGK([γGlu-Gly-γGlu-C18 diacid])-NH2
modifications: disulfide 4-14
SMILES: CC[C@H](C)[C@@H]1NC(=O)[C@@H](NC(=O)[C@H](Cc2ccccc2)NC(=O)[C@H](CCC(=O)O)NC(=O)[C@H](CO)NC(C)=O)CSSC[C@@H](C(=O)N(C)CC(=O)N[C@@H](CCC(=O)O)C(=O)NCC(=O)N[C@@H](CCC(=O)O)C(=O)NCC(=O)NCC(=O)NCC(=O)N[C@@H](CCCCNC(=O)CC[C@H](NC(=O)CNC(=O)CC[C@H](NC(=O)CCCCCCCCCCCCCCCCC(=O)O)C(=O)O)C(=O)O)C(N)=O)NC(=O)[C@H](CCCNC(=N)N)NC(=O)[C@H](Cc2c[nH]cn2)NC(=O)[C@H](CCC(=O)O)NC(=O)CNC(=O)[C@H](Cc2c[nH]c3ccccc23)NC(=O)[C@H](CC(=O)O)NC(=O)[C@H](CCC(N)=O)NC(=O)[C@H](Cc2cn(C)c3ccccc23)NC1=O
B6: Compound 115 (peptide)
peptide: Ac-SEYCI[Trp(1-Me)]QDWGEHRC[Sar]EGKK([γGlu-Gly-γGlu-C18 diacid])-NH2
modifications: disulfide 4-14
SMILES: CC[C@H](C)[C@@H]1NC(=O)[C@@H](NC(=O)[C@H](Cc2ccc(O)cc2)NC(=O)[C@H](CCC(=O)O)NC(=O)[C@H](CO)NC(C)=O)CSSC[C@@H](C(=O)N(C)CC(=O)N[C@@H](CCC(=O)O)C(=O)NCC(=O)N[C@@H](CCCCN)C(=O)N[C@@H](CCCCNC(=O)CC[C@H](NC(=O)CNC(=O)CC[C@H](NC(=O)CCCCCCCCCCCCCCCCC(=O)O)C(=O)O)C(=O)O)C(N)=O)NC(=O)[C@H](CCCNC(=N)N)NC(=O)[C@H](Cc2c[nH]cn2)NC(=O)[C@H](CCC(=O)O)NC(=O)CNC(=O)[C@H](Cc2c[nH]c3ccccc23)NC(=O)[C@H](CC(=O)O)NC(=O)[C@H](CCC(N)=O)NC(=O)[C@H](Cc2cn(C)c3ccccc23)NC1=O
B7: Compound 113 (peptide)
peptide: Ac-ASGEYCI[Trp(1-Me)]QDWGEHRC[Sar]EGEK([γGlu-Gly-γGlu-C18 diacid])-NH2
modifications: disulfide 6-16
SMILES: CC[C@H](C)[C@@H]1NC(=O)[C@@H](NC(=O)[C@H](Cc2ccc(O)cc2)NC(=O)[C@H](CCC(=O)O)NC(=O)CNC(=O)[C@H](CO)NC(=O)[C@H](C)NC(C)=O)CSSC[C@@H](C(=O)N(C)CC(=O)N[C@@H](CCC(=O)O)C(=O)NCC(=O)N[C@@H](CCC(=O)O)C(=O)N[C@@H](CCCCNC(=O)CC[C@H](NC(=O)CNC(=O)CC[C@H](NC(=O)CCCCCCCCCCCCCCCCC(=O)O)C(=O)O)C(=O)O)C(N)=O)NC(=O)[C@H](CCCNC(=N)N)NC(=O)[C@H](Cc2c[nH]cn2)NC(=O)[C@H](CCC(=O)O)NC(=O)CNC(=O)[C@H](Cc2c[nH]c3ccccc23)NC(=O)[C@H](CC(=O)O)NC(=O)[C@H](CCC(N)=O)NC(=O)[C@H](Cc2cn(C)c3ccccc23)NC1=O

The target of the test is Human C3 (human, UniProt P01024 23-1663). The experiment in a line: cell-based or functional assay.
Chain of Human C3 (P01024 23-1663 limits assumed): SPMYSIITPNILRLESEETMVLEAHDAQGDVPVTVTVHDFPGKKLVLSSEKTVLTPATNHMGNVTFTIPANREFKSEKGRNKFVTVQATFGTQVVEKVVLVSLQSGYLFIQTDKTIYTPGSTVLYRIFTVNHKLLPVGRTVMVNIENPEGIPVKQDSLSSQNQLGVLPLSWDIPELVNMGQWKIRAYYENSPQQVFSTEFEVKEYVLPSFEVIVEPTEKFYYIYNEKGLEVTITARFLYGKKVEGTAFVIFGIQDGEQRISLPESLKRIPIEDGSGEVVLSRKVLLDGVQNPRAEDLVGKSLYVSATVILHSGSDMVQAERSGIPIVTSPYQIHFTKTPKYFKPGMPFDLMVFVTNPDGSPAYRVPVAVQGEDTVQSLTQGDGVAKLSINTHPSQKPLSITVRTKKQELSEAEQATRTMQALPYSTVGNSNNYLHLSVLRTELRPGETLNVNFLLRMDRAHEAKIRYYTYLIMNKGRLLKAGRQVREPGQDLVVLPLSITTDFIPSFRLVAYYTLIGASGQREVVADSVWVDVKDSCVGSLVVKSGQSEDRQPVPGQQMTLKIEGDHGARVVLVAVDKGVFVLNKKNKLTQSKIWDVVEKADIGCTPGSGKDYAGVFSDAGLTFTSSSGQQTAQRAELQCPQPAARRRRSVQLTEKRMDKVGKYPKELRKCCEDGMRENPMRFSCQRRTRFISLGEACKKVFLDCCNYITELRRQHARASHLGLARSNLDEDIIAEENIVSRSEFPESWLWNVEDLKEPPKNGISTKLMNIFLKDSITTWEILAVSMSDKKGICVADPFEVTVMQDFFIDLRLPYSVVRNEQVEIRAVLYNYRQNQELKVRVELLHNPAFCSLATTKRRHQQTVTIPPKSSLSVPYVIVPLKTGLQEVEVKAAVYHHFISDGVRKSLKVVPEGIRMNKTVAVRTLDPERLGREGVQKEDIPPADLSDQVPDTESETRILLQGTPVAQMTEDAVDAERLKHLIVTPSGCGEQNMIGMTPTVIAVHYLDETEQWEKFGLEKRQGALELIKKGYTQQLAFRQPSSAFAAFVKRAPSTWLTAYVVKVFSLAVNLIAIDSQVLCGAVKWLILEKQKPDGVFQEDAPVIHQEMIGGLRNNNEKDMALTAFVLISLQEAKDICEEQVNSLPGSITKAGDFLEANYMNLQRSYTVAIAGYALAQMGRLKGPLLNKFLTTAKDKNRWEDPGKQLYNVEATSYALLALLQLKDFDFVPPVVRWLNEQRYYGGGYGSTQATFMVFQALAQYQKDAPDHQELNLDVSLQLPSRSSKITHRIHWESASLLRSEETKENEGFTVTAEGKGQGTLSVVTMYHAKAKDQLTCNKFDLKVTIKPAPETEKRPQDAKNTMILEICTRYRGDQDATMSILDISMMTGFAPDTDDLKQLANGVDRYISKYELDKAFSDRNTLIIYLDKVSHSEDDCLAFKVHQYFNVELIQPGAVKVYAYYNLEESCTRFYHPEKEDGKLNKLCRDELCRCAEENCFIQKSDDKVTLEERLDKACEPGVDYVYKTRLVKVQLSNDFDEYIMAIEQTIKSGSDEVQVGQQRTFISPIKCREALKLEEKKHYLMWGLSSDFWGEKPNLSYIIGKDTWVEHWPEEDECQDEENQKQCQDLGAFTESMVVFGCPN
Consider B1, for which the IC50[nM], inhibition of hemolysis is below 250 nM.
Then B2, with below 250 nM.
In the case of B3, the IC50[nM], inhibition of hemolysis was below 500 nM.
Then B4, with below 500 nM.
For Ac-SEYCI[Trp(1-Me)]QDWGEHRC[Sar]EGEK([γGlu-Lys-γGlu-C18 diacid])-NH2 (disulfide 4-14) [Compound 116], the IC50[nM], inhibition of hemolysis was below 500 nM.
B5 had an IC50[nM], inhibition of hemolysis below 100 nM.
Next, B6: below 250 nM; B7: below 500 nM.
